Our source for the Kd values is publication PMC2726290 (2008).

For test [1], the target named is T1, hPHD-HD1 complex (hPygo1 PHD 333-402 with hBCL9 HD1) (human, UniProt Q9Y3Y4 333-402; O00512 177-205).
T1 chain 1: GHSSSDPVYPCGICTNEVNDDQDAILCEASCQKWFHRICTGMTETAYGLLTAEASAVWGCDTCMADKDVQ
T1 chain 2: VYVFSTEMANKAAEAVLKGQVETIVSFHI
Nature of the test: ITC. On the technique in general: In ITC the heat of successive injections is recorded.

In test [2] the target is hPygo1 PHD finger mutated at Q354 (human, UniProt Q9Y3Y4 333-402). Nature of the test: ITC; Q354A.
The target of test [3] is T2, hPygo1 PHD finger V350E (human, UniProt Q9Y3Y4 333-402, V350E).
T2 sequence: T1 chain 1 with V18E
Nature of the test: ITC.

Test [4] addresses hPygo1 PHD finger mutated at N351 (human, UniProt Q9Y3Y4 333-402). Briefly: ITC; N351A.

Changes are numbered by the printed parent chain. No end group written: not given here.

For orientation: Kd means a measure of binding affinity in units of concentration. In test [1], GRTKQTARK (dimethyl-lysine at K4) [H3K4me2 9-mer whose A1 was substituted with a glycine] registered a Kd of 99.8 µM.
Same read-out and setting: as for ARTK(Me)QTARKSTGGKA [H3K4me1 15-mer histone H3 tail peptide], the figure is 2.2 µM.
On to ARTKQTARKSTGGKA (trimethyl-lysine at K4) [H3K4me3 15-mer histone H3 tail peptide], for which the Kd in test [2] is 13.8 µM; in test [3], 98 µM; in test [4], 7.1 µM.
